Source: the supplement of paper PMC11908140

B1: library; numbered along this chain (parent)
chain: MRKPRAAVGSGHRKQAASQEGRQKHAKNNSQAKPSACDGLARQPEEVVLQASVSSYHLFRDVAEVTAFRGSLLSWYDQEKRDLPWRRRAEDEMDLDRRAYAVWVSEVMLQQTQVATVINYYTGWMQKWPTLQDLASASLEEVNQLWAGLGYYSRGRRLQEGARKVVEELGGHMPRTAETLQQLLPGVGRYTAGAIASIAFGQATGVVDGNVARVLCRVRAIGADPSSTLVSQQLWGLAQQLVDPARPGDFNQAAMELGATVCTPQRPLCSQCPVESLCRARQRVEQEQLLASGSLSGSPDVEECAPNTGQCHLCLPPSEPWDQTLGVVNFPRKASRKPPREESSATCVLEQPGALGAQILLVQRPNSGLLAGLWEFPSVTWEPSEQLQRKALLQELQRWAGPLPATHLRHLGEVVHTFSHIKLTYQVYGLALEGQTPVTTVPPGARWLTQEEFHTAAVSTAMKKVFRVYQGQQPGTCMGSKRSQVSSPCSRKKPRMGQQVLDNFFRSHISTDAHSLNSAAQ

Variants of: B1
Assay: 8OG:A repair function score (normalized; synonymous = 0, nonsense = -1) (normalized log-likelihood score); higher = more repair activity (WT-like)
Conditions: with 8OG:A DNA repair reporter (GFP) in HEK-293 MUTYH KO cells
Method: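 Saturation mutagenesis (NNN codon scan) of the MUTYH cDNA (521-aa nuclear isoform NM_001048174.1 / NP_001041639), stably expressed under doxycycline induction in HEK-293 MUTYH knockout cells. Cells were co-transfected with an 8OG:A-bearing GFP repair reporter plus mCherry and sorted 72 h later into GFP+ and GFP− bins, three replicates per tile. The Rosace log2 enrichment (GFP+ vs GFP−) was converted per tile to a normalized function score with synonymous variants centered at 0 and nonsense variants (codons 1-471) at -1; low-abundance variants were removed.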

Row | Variant | 8OG:A repair function score
1 | MRKPRAAVGSGHRKQAASQEGRQKHAKNNSQAKPSACDGLARQPEEVVLQASVSSYHLFRDVAEVTAFRGSLLSWYDQEKRDLPWRRRAEDEMDLDRRAYAVWVSEVMLQQTQVATVINYYTGWMQKWPTLQDLASASLEEVNQLWAGLGYYSRGRRLQEGARKVVEELGGHMPRTAVTLQQLLPGVGRYTAGAIASIAFGQATGVVDGNVARVLCRVRAIGADPSSTLVSQQLWGLAQQLVDPARPGDFNQAAMELGATVCTPQRPLCSQCPVESLCRARQRVEQEQLLASGSLSGSPDVEECAPNTGQCHLCLPPSEPWDQTLGVVNFPRKASRKPPREESSATCVLEQPGALGAQILLVQRPNSGLLAGLWEFPSVTWEPSEQLQRKALLQELQRWAGPLPATHLRHLGEVVHTFSHIKLTYQVYGLALEGQTPVTTVPPGARWLTQEEFHTAAVSTAMKKVFRVYQGQQPGTCMGSKRSQVSSPCSRKKPRMGQQVLDNFFRSHISTDAHSLNSAAQ [E178V] | -0.12
2 | MRKPRAAVGSGHRKQAASQEGRQKHAKNNSQAKPSACDGLARQPEEVVLQASVSSYHLFRDVAEVTAFRGSLLSWYDQEKRDLPWRRRAEDEMDLDRRAYAVWVSEVMLQQTQVATVINYYTGWMQKWPTLQDLASASLEEVNQLWAGLGYYSRGRRLQEGARKVVEELGGHMPRTAWTLQQLLPGVGRYTAGAIASIAFGQATGVVDGNVARVLCRVRAIGADPSSTLVSQQLWGLAQQLVDPARPGDFNQAAMELGATVCTPQRPLCSQCPVESLCRARQRVEQEQLLASGSLSGSPDVEECAPNTGQCHLCLPPSEPWDQTLGVVNFPRKASRKPPREESSATCVLEQPGALGAQILLVQRPNSGLLAGLWEFPSVTWEPSEQLQRKALLQELQRWAGPLPATHLRHLGEVVHTFSHIKLTYQVYGLALEGQTPVTTVPPGARWLTQEEFHTAAVSTAMKKVFRVYQGQQPGTCMGSKRSQVSSPCSRKKPRMGQQVLDNFFRSHISTDAHSLNSAAQ [E178W] | -0.0455
3 | MRKPRAAVGSGHRKQAASQEGRQKHAKNNSQAKPSACDGLARQPEEVVLQASVSSYHLFRDVAEVTAFRGSLLSWYDQEKRDLPWRRRAEDEMDLDRRAYAVWVSEVMLQQTQVATVINYYTGWMQKWPTLQDLASASLEEVNQLWAGLGYYSRGRRLQEGARKVVEELGGHMPRTARTLQQLLPGVGRYTAGAIASIAFGQATGVVDGNVARVLCRVRAIGADPSSTLVSQQLWGLAQQLVDPARPGDFNQAAMELGATVCTPQRPLCSQCPVESLCRARQRVEQEQLLASGSLSGSPDVEECAPNTGQCHLCLPPSEPWDQTLGVVNFPRKASRKPPREESSATCVLEQPGALGAQILLVQRPNSGLLAGLWEFPSVTWEPSEQLQRKALLQELQRWAGPLPATHLRHLGEVVHTFSHIKLTYQVYGLALEGQTPVTTVPPGARWLTQEEFHTAAVSTAMKKVFRVYQGQQPGTCMGSKRSQVSSPCSRKKPRMGQQVLDNFFRSHISTDAHSLNSAAQ [E178R] | 0.0879
4 | MRKPRAAVGSGHRKQAASQEGRQKHAKNNSQAKPSACDGLARQPEEVVLQASVSSYHLFRDVAEVTAFRGSLLSWYDQEKRDLPWRRRAEDEMDLDRRAYAVWVSEVMLQQTQVATVINYYTGWMQKWPTLQDLASASLEEVNQLWAGLGYYSRGRRLQEGARKVVEELGGHMPRTATTLQQLLPGVGRYTAGAIASIAFGQATGVVDGNVARVLCRVRAIGADPSSTLVSQQLWGLAQQLVDPARPGDFNQAAMELGATVCTPQRPLCSQCPVESLCRARQRVEQEQLLASGSLSGSPDVEECAPNTGQCHLCLPPSEPWDQTLGVVNFPRKASRKPPREESSATCVLEQPGALGAQILLVQRPNSGLLAGLWEFPSVTWEPSEQLQRKALLQELQRWAGPLPATHLRHLGEVVHTFSHIKLTYQVYGLALEGQTPVTTVPPGARWLTQEEFHTAAVSTAMKKVFRVYQGQQPGTCMGSKRSQVSSPCSRKKPRMGQQVLDNFFRSHISTDAHSLNSAAQ [E178T] | 0.0829
5 | MRKPRAAVGSGHRKQAASQEGRQKHAKNNSQAKPSACDGLARQPEEVVLQASVSSYHLFRDVAEVTAFRGSLLSWYDQEKRDLPWRRRAEDEMDLDRRAYAVWVSEVMLQQTQVATVINYYTGWMQKWPTLQDLASASLEEVNQLWAGLGYYSRGRRLQEGARKVVEELGGHMPRTASTLQQLLPGVGRYTAGAIASIAFGQATGVVDGNVARVLCRVRAIGADPSSTLVSQQLWGLAQQLVDPARPGDFNQAAMELGATVCTPQRPLCSQCPVESLCRARQRVEQEQLLASGSLSGSPDVEECAPNTGQCHLCLPPSEPWDQTLGVVNFPRKASRKPPREESSATCVLEQPGALGAQILLVQRPNSGLLAGLWEFPSVTWEPSEQLQRKALLQELQRWAGPLPATHLRHLGEVVHTFSHIKLTYQVYGLALEGQTPVTTVPPGARWLTQEEFHTAAVSTAMKKVFRVYQGQQPGTCMGSKRSQVSSPCSRKKPRMGQQVLDNFFRSHISTDAHSLNSAAQ [E178S] | -0.037
6 | MRKPRAAVGSGHRKQAASQEGRQKHAKNNSQAKPSACDGLARQPEEVVLQASVSSYHLFRDVAEVTAFRGSLLSWYDQEKRDLPWRRRAEDEMDLDRRAYAVWVSEVMLQQTQVATVINYYTGWMQKWPTLQDLASASLEEVNQLWAGLGYYSRGRRLQEGARKVVEELGGHMPRTAYTLQQLLPGVGRYTAGAIASIAFGQATGVVDGNVARVLCRVRAIGADPSSTLVSQQLWGLAQQLVDPARPGDFNQAAMELGATVCTPQRPLCSQCPVESLCRARQRVEQEQLLASGSLSGSPDVEECAPNTGQCHLCLPPSEPWDQTLGVVNFPRKASRKPPREESSATCVLEQPGALGAQILLVQRPNSGLLAGLWEFPSVTWEPSEQLQRKALLQELQRWAGPLPATHLRHLGEVVHTFSHIKLTYQVYGLALEGQTPVTTVPPGARWLTQEEFHTAAVSTAMKKVFRVYQGQQPGTCMGSKRSQVSSPCSRKKPRMGQQVLDNFFRSHISTDAHSLNSAAQ [E178Y] | 0.00398
